Results: US20230357348A1 (AstraZeneca / MedImmune, published 2023)
Starred links: 1 amine or outer side, 2 acyl side, 3 side chain; linkers in the order of their positions; H or OH if unused. Non-standard residues stand in square brackets, D forms with d. Groups on a side chain read outwards from the residue. No end group written: not given here. *: point of attachment. C20 diacid = O=C(O)CCCCCCCCCCCCCCCCCCC(=O)*; C18 diacid = O=C(O)CCCCCCCCCCCCCCCCC(=O)*; γGlu = O=C(O)[C@H](CCC(=O)[*:2])N[*:1]; αMeF = C[C@](N)(Cc1ccccc1)C(=O)O; AEEA = NCCOCCOCC(=O)O; Aib = CC(C)(N)C(=O)O

How the values were obtained:
[1] = molecular target: human GLP-1 receptor (hGLP-1R) (human, UniProt P43220 24-463); test: cell-based or functional assay
[2] = molecular target: human glucagon receptor (hGCGR) (human, UniProt P47871 26-477); test: cell-based or functional assay
Sequence of human glucagon receptor (hGCGR) (P47871 26-477): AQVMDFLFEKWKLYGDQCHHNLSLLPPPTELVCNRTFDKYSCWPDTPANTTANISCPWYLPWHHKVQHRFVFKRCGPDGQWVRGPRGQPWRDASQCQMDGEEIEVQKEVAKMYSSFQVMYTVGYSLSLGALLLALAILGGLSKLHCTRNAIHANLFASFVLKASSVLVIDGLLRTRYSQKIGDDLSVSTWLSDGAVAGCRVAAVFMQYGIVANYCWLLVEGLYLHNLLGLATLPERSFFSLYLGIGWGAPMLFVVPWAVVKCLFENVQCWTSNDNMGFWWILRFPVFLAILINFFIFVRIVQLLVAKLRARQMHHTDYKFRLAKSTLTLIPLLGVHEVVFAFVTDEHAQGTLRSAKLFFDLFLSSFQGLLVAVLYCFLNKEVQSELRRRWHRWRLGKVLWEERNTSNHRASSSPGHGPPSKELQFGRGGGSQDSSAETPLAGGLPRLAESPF

B1: Peptide 415 (peptide)
peptide: H[Aib]QGTFTSDVSK[αMeF]LESK([AEEA-AEEA-γGlu-C18 diacid])RAQDFVRWLEA[Aib]G-OH
modifications: N-terminus assumed
SMILES: CC(C)C[C@H](NC(=O)[C@H](Cc1c[nH]c2ccccc12)NC(=O)[C@H](CCCNC(=N)N)NC(=O)[C@@H](NC(=O)[C@H](Cc1ccccc1)NC(=O)[C@H](CC(=O)O)NC(=O)[C@H](CCC(N)=O)NC(=O)[C@H](C)NC(=O)[C@H](CCCNC(=N)N)NC(=O)[C@H](CCCCNC(=O)COCCOCCNC(=O)COCCOCCNC(=O)CC[C@H](NC(=O)CCCCCCCCCCCCCCCCC(=O)O)C(=O)O)NC(=O)[C@H](CO)NC(=O)[C@H](CCC(=O)O)NC(=O)[C@H](CC(C)C)NC(=O)[C@](C)(Cc1ccccc1)NC(=O)[C@H](CCCCN)NC(=O)[C@H](CO)NC(=O)[C@@H](NC(=O)[C@H](CC(=O)O)NC(=O)[C@H](CO)NC(=O)[C@@H](NC(=O)[C@H](Cc1ccccc1)NC(=O)[C@@H](NC(=O)CNC(=O)[C@H](CCC(N)=O)NC(=O)C(C)(C)NC(=O)[C@@H](N)Cc1c[nH]cn1)[C@@H](C)O)[C@@H](C)O)C(C)C)C(C)C)C(=O)N[C@@H](CCC(=O)O)C(=O)N[C@@H](C)C(=O)NC(C)(C)C(=O)NCC(=O)O
- hGLP-1R EC50 (pM) [1]: 14.7 pM
- hGluc-R EC50 (pM) [2]: 301 pM

B2: Peptide 416 (peptide)
peptide: H[Aib]QGTFTSDVSK[αMeF]LESK([AEEA-AEEA-γGlu-C20 diacid])RAQDFVRWLEA[Aib]G-OH
modifications: N-terminus assumed
SMILES: CC(C)C[C@H](NC(=O)[C@H](Cc1c[nH]c2ccccc12)NC(=O)[C@H](CCCNC(=N)N)NC(=O)[C@@H](NC(=O)[C@H](Cc1ccccc1)NC(=O)[C@H](CC(=O)O)NC(=O)[C@H](CCC(N)=O)NC(=O)[C@H](C)NC(=O)[C@H](CCCNC(=N)N)NC(=O)[C@H](CCCCNC(=O)COCCOCCNC(=O)COCCOCCNC(=O)CC[C@H](NC(=O)CCCCCCCCCCCCCCCCCCC(=O)O)C(=O)O)NC(=O)[C@H](CO)NC(=O)[C@H](CCC(=O)O)NC(=O)[C@H](CC(C)C)NC(=O)[C@](C)(Cc1ccccc1)NC(=O)[C@H](CCCCN)NC(=O)[C@H](CO)NC(=O)[C@@H](NC(=O)[C@H](CC(=O)O)NC(=O)[C@H](CO)NC(=O)[C@@H](NC(=O)[C@H](Cc1ccccc1)NC(=O)[C@@H](NC(=O)CNC(=O)[C@H](CCC(N)=O)NC(=O)C(C)(C)NC(=O)[C@@H](N)Cc1c[nH]cn1)[C@@H](C)O)[C@@H](C)O)C(C)C)C(C)C)C(=O)N[C@@H](CCC(=O)O)C(=O)N[C@@H](C)C(=O)NC(C)(C)C(=O)NCC(=O)O
- hGLP-1R EC50 (pM) [1]: 67.7 pM
- hGluc-R EC50 (pM) [2]: 581 pM

B3: Peptide 417 (peptide)
peptide: H[Aib]QGTFTSDVSK[αMeF]LDTK([AEEA-AEEA-γGlu-γGlu-C18 diacid])RAQDFVAWLEA[Aib]G-OH
modifications: N-terminus assumed
SMILES: CC(C)C[C@H](NC(=O)[C@H](Cc1c[nH]c2ccccc12)NC(=O)[C@H](C)NC(=O)[C@@H](NC(=O)[C@H](Cc1ccccc1)NC(=O)[C@H](CC(=O)O)NC(=O)[C@H](CCC(N)=O)NC(=O)[C@H](C)NC(=O)[C@H](CCCNC(=N)N)NC(=O)[C@H](CCCCNC(=O)COCCOCCNC(=O)COCCOCCNC(=O)CC[C@H](NC(=O)CC[C@H](NC(=O)CCCCCCCCCCCCCCCCC(=O)O)C(=O)O)C(=O)O)NC(=O)[C@@H](NC(=O)[C@H](CC(=O)O)NC(=O)[C@H](CC(C)C)NC(=O)[C@](C)(Cc1ccccc1)NC(=O)[C@H](CCCCN)NC(=O)[C@H](CO)NC(=O)[C@@H](NC(=O)[C@H](CC(=O)O)NC(=O)[C@H](CO)NC(=O)[C@@H](NC(=O)[C@H](Cc1ccccc1)NC(=O)[C@@H](NC(=O)CNC(=O)[C@H](CCC(N)=O)NC(=O)C(C)(C)NC(=O)[C@@H](N)Cc1c[nH]cn1)[C@@H](C)O)[C@@H](C)O)C(C)C)[C@@H](C)O)C(C)C)C(=O)N[C@@H](CCC(=O)O)C(=O)N[C@@H](C)C(=O)NC(C)(C)C(=O)NCC(=O)O
- hGLP-1R EC50 (pM) [1]: 33.9 pM
- hGluc-R EC50 (pM) [2]: 16.4 pM

B4: Peptide 418 (peptide)
peptide: H[Aib]QGTFTSDVSK[αMeF]LDTK([AEEA-AEEA-γGlu-γGlu-C20 diacid])RAQDFVAWLEA[Aib]G-OH
modifications: N-terminus assumed
SMILES: CC(C)C[C@H](NC(=O)[C@H](Cc1c[nH]c2ccccc12)NC(=O)[C@H](C)NC(=O)[C@@H](NC(=O)[C@H](Cc1ccccc1)NC(=O)[C@H](CC(=O)O)NC(=O)[C@H](CCC(N)=O)NC(=O)[C@H](C)NC(=O)[C@H](CCCNC(=N)N)NC(=O)[C@H](CCCCNC(=O)COCCOCCNC(=O)COCCOCCNC(=O)CC[C@H](NC(=O)CC[C@H](NC(=O)CCCCCCCCCCCCCCCCCCC(=O)O)C(=O)O)C(=O)O)NC(=O)[C@@H](NC(=O)[C@H](CC(=O)O)NC(=O)[C@H](CC(C)C)NC(=O)[C@](C)(Cc1ccccc1)NC(=O)[C@H](CCCCN)NC(=O)[C@H](CO)NC(=O)[C@@H](NC(=O)[C@H](CC(=O)O)NC(=O)[C@H](CO)NC(=O)[C@@H](NC(=O)[C@H](Cc1ccccc1)NC(=O)[C@@H](NC(=O)CNC(=O)[C@H](CCC(N)=O)NC(=O)C(C)(C)NC(=O)[C@@H](N)Cc1c[nH]cn1)[C@@H](C)O)[C@@H](C)O)C(C)C)[C@@H](C)O)C(C)C)C(=O)N[C@@H](CCC(=O)O)C(=O)N[C@@H](C)C(=O)NC(C)(C)C(=O)NCC(=O)O
- hGLP-1R EC50 (pM) [1]: 88.1 pM
- hGluc-R EC50 (pM) [2]: 222 pM

B5: Peptide 419 (peptide)
peptide: H[Aib]QGTFTSDVSK[αMeF]LDTK([AEEA-AEEA-γGlu-C18 diacid])RAQDFVRWLE[Aib]E-OH
modifications: N-terminus assumed
SMILES: CC(C)C[C@H](NC(=O)[C@H](Cc1c[nH]c2ccccc12)NC(=O)[C@H](CCCNC(=N)N)NC(=O)[C@@H](NC(=O)[C@H](Cc1ccccc1)NC(=O)[C@H](CC(=O)O)NC(=O)[C@H](CCC(N)=O)NC(=O)[C@H](C)NC(=O)[C@H](CCCNC(=N)N)NC(=O)[C@H](CCCCNC(=O)COCCOCCNC(=O)COCCOCCNC(=O)CC[C@H](NC(=O)CCCCCCCCCCCCCCCCC(=O)O)C(=O)O)NC(=O)[C@@H](NC(=O)[C@H](CC(=O)O)NC(=O)[C@H](CC(C)C)NC(=O)[C@](C)(Cc1ccccc1)NC(=O)[C@H](CCCCN)NC(=O)[C@H](CO)NC(=O)[C@@H](NC(=O)[C@H](CC(=O)O)NC(=O)[C@H](CO)NC(=O)[C@@H](NC(=O)[C@H](Cc1ccccc1)NC(=O)[C@@H](NC(=O)CNC(=O)[C@H](CCC(N)=O)NC(=O)C(C)(C)NC(=O)[C@@H](N)Cc1c[nH]cn1)[C@@H](C)O)[C@@H](C)O)C(C)C)[C@@H](C)O)C(C)C)C(=O)N[C@@H](CCC(=O)O)C(=O)NC(C)(C)C(=O)N[C@@H](CCC(=O)O)C(=O)O
- hGLP-1R EC50 (pM) [1]: 96.9 pM
- hGluc-R EC50 (pM) [2]: 264 pM

B6: Peptide 420 (peptide)
peptide: H[Aib]QGTFTSDVSK[αMeF]LDKK([AEEA-AEEA-γGlu-C18 diacid])RAQDFVRWLL[Aib]E-NH2
modifications: N-terminus assumed
SMILES: CC(C)C[C@H](NC(=O)[C@H](Cc1c[nH]c2ccccc12)NC(=O)[C@H](CCCNC(=N)N)NC(=O)[C@@H](NC(=O)[C@H](Cc1ccccc1)NC(=O)[C@H](CC(=O)O)NC(=O)[C@H](CCC(N)=O)NC(=O)[C@H](C)NC(=O)[C@H](CCCNC(=N)N)NC(=O)[C@H](CCCCNC(=O)COCCOCCNC(=O)COCCOCCNC(=O)CC[C@H](NC(=O)CCCCCCCCCCCCCCCCC(=O)O)C(=O)O)NC(=O)[C@H](CCCCN)NC(=O)[C@H](CC(=O)O)NC(=O)[C@H](CC(C)C)NC(=O)[C@](C)(Cc1ccccc1)NC(=O)[C@H](CCCCN)NC(=O)[C@H](CO)NC(=O)[C@@H](NC(=O)[C@H](CC(=O)O)NC(=O)[C@H](CO)NC(=O)[C@@H](NC(=O)[C@H](Cc1ccccc1)NC(=O)[C@@H](NC(=O)CNC(=O)[C@H](CCC(N)=O)NC(=O)C(C)(C)NC(=O)[C@@H](N)Cc1c[nH]cn1)[C@@H](C)O)[C@@H](C)O)C(C)C)C(C)C)C(=O)N[C@@H](CC(C)C)C(=O)NC(C)(C)C(=O)N[C@@H](CCC(=O)O)C(N)=O
- hGLP-1R EC50 (pM) [1]: 23.1 pM
- hGluc-R EC50 (pM) [2]: 36.9 pM

B7: Peptide 421 (peptide)
peptide: H[Aib]QGTFTSDVSK[αMeF]LDRK([AEEA-AEEA-γGlu-C18 diacid])RAQDFVRWLL[Aib]TE-OH
modifications: N-terminus assumed
SMILES: CC(C)C[C@H](NC(=O)[C@H](Cc1c[nH]c2ccccc12)NC(=O)[C@H](CCCNC(=N)N)NC(=O)[C@@H](NC(=O)[C@H](Cc1ccccc1)NC(=O)[C@H](CC(=O)O)NC(=O)[C@H](CCC(N)=O)NC(=O)[C@H](C)NC(=O)[C@H](CCCNC(=N)N)NC(=O)[C@H](CCCCNC(=O)COCCOCCNC(=O)COCCOCCNC(=O)CC[C@H](NC(=O)CCCCCCCCCCCCCCCCC(=O)O)C(=O)O)NC(=O)[C@H](CCCNC(=N)N)NC(=O)[C@H](CC(=O)O)NC(=O)[C@H](CC(C)C)NC(=O)[C@](C)(Cc1ccccc1)NC(=O)[C@H](CCCCN)NC(=O)[C@H](CO)NC(=O)[C@@H](NC(=O)[C@H](CC(=O)O)NC(=O)[C@H](CO)NC(=O)[C@@H](NC(=O)[C@H](Cc1ccccc1)NC(=O)[C@@H](NC(=O)CNC(=O)[C@H](CCC(N)=O)NC(=O)C(C)(C)NC(=O)[C@@H](N)Cc1c[nH]cn1)[C@@H](C)O)[C@@H](C)O)C(C)C)C(C)C)C(=O)N[C@@H](CC(C)C)C(=O)NC(C)(C)C(=O)N[C@H](C(=O)N[C@@H](CCC(=O)O)C(=O)O)[C@@H](C)O
- hGLP-1R EC50 (pM) [1]: 87.3 pM
- hGluc-R EC50 (pM) [2]: 180 pM
